Measurements from publication PMC2965676, “The C-Terminal Domain of the MutL Homolog from Neisseria gonorrhoeae Forms an Inverted Homodimer” (PLoS ONE, 2010).

Biological target: the molecule itself
Assay: SEC; Superose 6 HR 10/30; 10 mM Hepes pH 8.0, 300 mM KCl, 10% glycerol, 1 mM 2-mercaptoethanol; 0.4 ml/min; calibrated with molecular-mass markers

B1: C-terminal domain of the MutL homolog of Neisseria gonorrhoeae (NgoL-CTD), wild type (domain or fragment, UniProt Q5F8M6 458-658, looked up)
chain: IPSQSELPPLGFAIAQLLGIYILAQAEDSLLLIDMHAAAERVNYEKMKRQRQENGNLQSQHLLIPVTFAASHEECAALADHAETLAGFGLELSDMGGNTLAVRAAPVMLGKSDVVSLARDVLGELAQVGSSQTIASHENRILATMSCHGSIRAGRRLTLPEMNALLRDMENTPRSNQCNHGRPTWVKLTLKELDTLFLRGQ
notes: MutL homolog (NgoL) of Neisseria gonorrhoeae, C-terminal domain, residues 458-658; In the model, residues 463-654 (monomer A) and 464-656 (monomer B) are built; 587-591 are disordered; also called C-terminal domain of NgoL; source: selenomethionine-labelled form in E. coli B834
  stoichiometry N: 2
